We go through 6 molecules from US20160024208A1 (Regeneron, published 2016).

Experiment [1] deals with T1, C-term Biotin Nav1.7 (3-1) peptide, human (human, not fully specified; C-terminal biotin attached via a G4S linker).
T1 construct: Synthetic peptide; also called Human Nav1.7 3-1 C-term biotin
T1 peptide: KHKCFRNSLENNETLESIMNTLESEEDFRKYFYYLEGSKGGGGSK
The experiment in a line: SPR, captured biotin-peptide, antibody analyte. A general note: Surface plasmon resonance follows binding to a sensor surface in real time, without labels.

Experiment [2] concerns the target T2, full-length human Nav1.7 fused at its N-terminus to GFP, expressed in HEK293 cells (human, UniProt Q15858 1-1988).
T2 construct: Voltage-gated sodium channel alpha subunit; In the Western blot it stood as denatured cell lysate; also called hNav 1.7-GFP-HEK293; Nav 1.7-GFP-HEK293; not shown: green fluorescent protein (GFP) at the N-terminus
The experiment in a line: flow cytometry; % stained hNav1.7-GFP-HEK293 minus parental HEK293. An outline of the steps:
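Percent-stained values come from FACS of healthy live cells, taking transfected-cell staining minus parental HEK293 staining. Cells were exposed on ice for 20 min to 1-13 nM antibody, then 20 min to 1.7 nM fluorescent anti-human or anti-mouse Fc secondary.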

Experiment [3] has as its target T2, full-length human Nav1.7 fused at its …. The experiment in a line: flow cytometry on Nav1.7-GFP-HEK293, antibody 3.3 nM preincubated with 3.3 uM EC 3-1 peptide as competitor. How it is done: The specificity of binding of anti-Naᵥ 1.7 human antibodies to full-length Naᵥ 1.7 expressed in HEK293 cells was determined by peptide competition experiments using flow cytometry.
HEK293 cells stably-transfected with full-length Naᵥ 1.7 fused at its N-terminus to GFP (Naᵥ 1.7-GFP-HEK293) were used for this study. Antibody binding to the transfected cells overexpressing Naᵥ 1.7 was compared to binding in the presence of excess peptide and to binding to the parental HEK293 cell line. To perform the binding experiments, adherent cells were collected using 1 mM EDTA in PBS, washed and re-suspended in cold PBS containing 5% FBS. For each binding experiment the anti-Naᵥ 1.7 antibody at a final concentration of 3.3 nM (in PBS/5% FBS) was added to cells either directly or after incubating for 10 min on ice with a 1000-fold molar excess (3.3 uM final concentration in PBS/5% FBS) of synthetic peptide with sequence corresponding to the loop specificity of the antibody. The antibodies designated as H4H391P, H4H443B, H4H448B, and H1M797N were preincubated as described above with a synthetic peptide corresponding to EC loop 3-1 (amino acid residues 269-338 of SEQ ID NO: 670), whereas the antibodies designated as H4H468P and H1 M852N were preincubated with a synthetic peptide corresponding to EC loop 3-3 (amino acid residues 1333-1382 of SEQ ID NO: 670). The antibody or antibody-peptide mixture was then allowed to incubate with cells for 20 min on ice, followed by addition of 500 uL of cold PBS/5% FBS. Cells were collected by centrifugation, resuspended in 500 uL of cold PBS/5% FBS, and then secondary antibody matched to the antibody isotype (either anti-human-Fc conjugated to Cyanine 5 or anti-mouse-Fc conjugated to allophyococyanin) was added. Binding was detected on the flow cytometry instrument and analyzed as percent binding using the instrument software. For FACS analysis appropriate gating was applied so that only healthy, live cells were counted. Background staining of secondary antibodies alone to Naᵥ 1.7-GFP-HEK293 cells was tested and recorded for all samples, and results ranged between 1-2% binding.
For orientation: In flow cytometry, cells or beads pass a laser one at a time.

B1: H1M797N (antibody, V domains shown)
VH: QVQLVESGGGVVQPGRSLRLSCAASGFTFSSYGMHWVRQAPGKGLEWVAVISYDGNNKHFADSVKGRFTISRDNSKNTLNLQMNSLRAEDRAVYYCARGASGFVLDIWGQGTMVTVSS
VL: DIVMTQTPLSSPVTLGQPASISCRSSQSLVRSDGNTYLSWLQQRPGQPPRLLIYKISNRFSGVPDRFSGSGAGTDFTLKISRVEAEDVGIYFCMQTTQFPFTFGPGTKVDIK
For B1, in experiment [1], the affinity, expressed as Kd, was 0.359 nM and the t1/2 is 1.65 h. Further, the “% Binding Nav1.7” value in experiment [2] stood at 14.4%. Moreover, the “% Binding Nav1.7 + 1000x Peptide (Competition Binding)” value (shortened to “% Binding Nav1.7 + 1000x Peptide”) in experiment [3] amounted to 10.8%.

B2: H1M801N (antibody, V domains shown)
VH: QVQVVESGGGVVQPGRSLRLSCAASGFTFSNYGMHWVRQAPGKGLEWVTVISYDGSNKNYADSVKGRFTISRDNSKNTLYLQMNSLRAEDTAMYYCARGGSGFAFDIWGQGTMVTVSS
VL: DIVMTQTPLSSPVTLGQPASISCRSSQSLVRSDGNTYLSWLQQRPGQPPRLLIYKISNRFSGVPDRFSGSGAGTDFTLKISRVEADDVGVYYCMQTTQFPFTFGPGTKVDIK
notes: also called H1H801N
For B2, in experiment [1], the Kd (usually the equilibrium constant for the complex coming apart) was 0.511 nM and the t1/2 is 1.18 h. The “% Binding Nav1.7” value in experiment [2] was found to be 49.5%. In experiment [3], the “% Binding Nav1.7 + 1000x Peptide” value was 1.9%.

B3: H1H1006B (antibody, V domains shown)
VH: EVQLVESGPGLVKSSETLSLKCTVSGGSISSSGYYWGWIRQPPGKGLEWIGSIHRSGSTFYNPSLKSRVTISVDTSKSQFSLRLTSVTAADTSVYFCGRHGRDYYYGMDVWGQGTTVTVSS
VL: DIQMTQSPSSVSASVGDRVTITCRSSQDINNWLVWYQQKPGKAPKVLIYGASRLQSGVPSRFSGSGSGTDFTLTISSLQPEDFATYYCQQANSFPLTFGGGTKVEIKR
notes: Fully human antibody; also called H4H1006B-1
In experiment [1], B3 gave a Kd of 0.239 nM and a t1/2 of 1.36 h. The “% Binding Nav1.7” value in experiment [2] amounted to 8.6%.

B4: H1M852N (antibody, V domains shown)
VH: QVQLVESGGGVVQPGRSLTLSCAASGFMFNRFGMHWVRQAPGKGLDWVAVIWYDGSNKYYADSVKGRFTISRDNSKNTLYLQVNSLRAEDTAVYYCAREGTPHYYDSSGLDYWGQGTLVTVSS
VL: AIQMTQSPSSLSAYVGDRVTITCRASQDIRNDLGWYQQKPGKAPNLLIYDISSLQSGVPSRFSGSGSGTDFTLTISSLQPEDFATYYCLQDYNYPLTFGGGTKVEIK
notes: constant region may differ; also called H4H852N
B4: in experiment [1], the binding result is recorded as “no binding”. For the same molecule, the “% Binding Nav1.7” value in experiment [2] came to 68.6%.

B5: H1M879N (antibody, V domains shown)
VH: EVQLVESGGGLVKPGGSLRLSCAASGFTFSSYTIHWVRQAPGKGLEWVSSISSSSSYIYYVDSVKGRFTISRDNAKNSVYLQMNSLRAEDTAVYYCATSSITARGYFDYWGQGTLVTVSS
VL: EIVLTQSPATLSLSPGERVTLSCRASQSVSSYLAWYQQKPGQAPRLLIYDASNRATGIPARFSGSGSGTDFTLTISSLEPEDFAVYYCQQRNIWPPTFGQGTKVEIK
notes: Hybridoma-derived
Take B5: in experiment [1], the Kd came to 0.27 nM and the t1/2 is 1.45 h. The “% Binding Nav1.7” value in experiment [2] turned out to be 63%. The “% Binding Nav1.7 + 1000x Peptide” value in experiment [3] is 1.3%.

B6: H1M836N (antibody, V domains shown)
VH: QVQLVESGGGVVQPGRSLRLSCAASGFTFSSYGMHWVRQAPGKGLEWVAVISYDGNNKYYADSVKGRFTISRDNSKNTLYLQMNSLRAEDTAVYYCAKGSAGYALDYWGQGTLVTVSS
VL: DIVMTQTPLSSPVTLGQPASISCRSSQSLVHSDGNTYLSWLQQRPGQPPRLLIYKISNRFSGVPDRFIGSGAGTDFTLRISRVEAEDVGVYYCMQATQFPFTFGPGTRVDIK
In experiment [1], B6 displayed a Kd of 19.2 nM and a t1/2 of 0.0633 h. For the same molecule, in experiment [2], the “% Binding Nav1.7” value came out at 68.9%. In addition, the “% Binding Nav1.7 + 1000x Peptide” value in experiment [3] stood at 2.2%.
